T1: FcγRIIb extracellular domain with C-terminal His tag (human, UniProt P31994 43-217)
T1 construct: extracellular domain; also called 2b; FcgRIIb; not shown: His tag at the C terminus
T1 sequence (looked up): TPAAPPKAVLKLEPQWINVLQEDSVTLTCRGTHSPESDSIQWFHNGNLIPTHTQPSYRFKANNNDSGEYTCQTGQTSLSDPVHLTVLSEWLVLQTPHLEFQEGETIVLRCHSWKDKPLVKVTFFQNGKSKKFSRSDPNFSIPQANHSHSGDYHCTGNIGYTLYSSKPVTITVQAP

B1: GpH7-A5/GpH7-B3 variant D265_06M/GpL16-k0 (antibody, human IgG1, kappa)
heavy 1: not shown
heavy 2: not shown
light: DIVMTQSPLSLPVTPGEPASISCQASESLVHSNRNTYLHWYLQKPGQSPQLLIYKVSNRFSGVPDRFSGSGSGTDFTLKISRVEAEDVGVYYCSQNTHVPPTFGQGTKVEIERTVAAPSVFIFPPSDEQLKSGTASVVCLLNNFYPREAKVQWKVDNALQSGNSQESVTEQDSKDSTYSLSSTLTLSKADYEKHKVYACEVTHQGLSSPVTKSFNRGEC
notes: He Ab: mutation in the GpH7-B3 H chain only; also called He Ab
B2: GpH7-A5/GpH7-B3 variant P331_10E/GpL16-k0 (antibody, human IgG1, kappa)
heavy 1: not shown
heavy 2: not shown
light: B1 light
notes: as for B1
B3: GpH7-A5/GpH7-B3 variant P331_15Y/GpL16-k0 (antibody, human IgG1, kappa)
heavy 1: not shown
heavy 2: not shown
light: B1 light
notes: as for B1
B4: GpH7-A5/GpH7-B3 variant N325_09D/GpL16-k0 (antibody, human IgG1, kappa)
heavy 1: not shown
heavy 2: not shown
light: B1 light
notes: as for B1
B5: GpH7-A5/GpH7-B3 variant L328_04F/GpL16-k0 (antibody, human IgG1, kappa)
heavy 1: not shown
heavy 2: not shown
light: B1 light
notes: as for B1
B6: GpH7-A5/GpH7-B3 variant L328_10E/GpL16-k0 (antibody, human IgG1, kappa)
heavy 1: not shown
heavy 2: not shown
light: B1 light
notes: as for B1
B7: GpH7-A5/GpH7-B3 variant N325_20W/GpL16-k0 (antibody, human IgG1, kappa)
heavy 1: not shown
heavy 2: not shown
light: B1 light
notes: as for B1
B8: GpH7-A5/GpH7-B3 variant D265_18N/GpL16-k0 (antibody, human IgG1, kappa)
heavy 1: not shown
heavy 2: not shown
light: B1 light
notes: as for B1
B9: GpH7-A5/GpH7-B3 variant L328_15Y/GpL16-k0 (antibody, human IgG1, kappa)
heavy 1: not shown
heavy 2: not shown
light: B1 light
notes: as for B1
B10: GpH7-A5/GpH7-B3 variant L328_09D/GpL16-k0 (antibody, human IgG1, kappa)
heavy 1: not shown
heavy 2: not shown
light: B1 light
notes: as for B1
B11: GpH7-A5/GpH7-B3 variant N325_13S/GpL16-k0 (antibody, human IgG1, kappa)
heavy 1: not shown
heavy 2: not shown
light: B1 light
notes: as for B1
B12: GpH7-A5/GpH7-B3 variant D265_14T/GpL16-k0 (antibody, human IgG1, kappa)
heavy 1: not shown
heavy 2: not shown
light: B1 light
notes: as for B1
B13: GpH7-A5/GpH7-B3 variant N325_07I/GpL16-k0 (antibody, human IgG1, kappa)
heavy 1: not shown
heavy 2: not shown
light: B1 light
notes: as for B1
B14: GpH7-A5/GpH7-B3 variant D265_12R/GpL16-k0 (antibody, human IgG1, kappa)
heavy 1: not shown
heavy 2: not shown
light: B1 light
notes: as for B1
B15: GpH7-A5/GpH7-B3 variant D265_07I/GpL16-k0 (antibody, human IgG1, kappa)
heavy 1: not shown
heavy 2: not shown
light: B1 light
notes: as for B1
B16: GpH7-A5/GpH7-B3 variant D265_20W/GpL16-k0 (antibody, human IgG1, kappa)
heavy 1: not shown
heavy 2: not shown
light: B1 light
notes: as for B1
B17: GpH7-A5/GpH7-B3 variant S267_04F/GpL16-k0 (antibody, human IgG1, kappa)
heavy 1: not shown
heavy 2: not shown
light: B1 light
notes: as for B1
B18: GpH7-A5/GpH7-B3 variant P331_16H/GpL16-k0 (antibody, human IgG1, kappa)
heavy 1: not shown
heavy 2: not shown
light: B1 light
notes: as for B1
B19: GpH7-A5/GpH7-B3 variant I332_04F/GpL16-k0 (antibody, human IgG1, kappa)
heavy 1: not shown
heavy 2: not shown
light: B1 light
notes: as for B1
B20: GpH7-A5/GpH7-B3 variant P331_07I/GpL16-k0 (antibody, human IgG1, kappa)
heavy 1: not shown
heavy 2: not shown
light: B1 light
notes: as for B1
B21: GpH7-A5/GpH7-B3 variant P331_04F/GpL16-k0 (antibody, human IgG1, kappa)
heavy 1: not shown
heavy 2: not shown
light: B1 light
notes: as for B1
B22: GpH7-A5/GpH7-B3 variant P331_03V/GpL16-k0 (antibody, human IgG1, kappa)
heavy 1: not shown
heavy 2: not shown
light: B1 light
notes: as for B1
B23: GpH7-A5/GpH7-B3 variant D265_10E/GpL16-k0 (antibody, human IgG1, kappa)
heavy 1: not shown
heavy 2: not shown
light: B1 light
notes: as for B1
B24: GpH7-A5/GpH7-B3 variant K334_12R/GpL16-k0 (antibody, human IgG1, kappa)
heavy 1: not shown
heavy 2: not shown
light: B1 light
notes: as for B1
B25: GpH7-A5/GpH7-B3 variant L328_06M/GpL16-k0 (antibody, human IgG1, kappa)
heavy 1: not shown
heavy 2: not shown
light: B1 light
notes: as for B1
B26: GpH7-A5/GpH7-B3 variant N325_06M/GpL16-k0 (antibody, human IgG1, kappa)
heavy 1: not shown
heavy 2: not shown
light: B1 light
notes: as for B1
B27: GpH7-A5/GpH7-B3 variant L328_02A/GpL16-k0 (antibody, human IgG1, kappa)
heavy 1: not shown
heavy 2: not shown
light: B1 light
notes: as for B1
B28: GpH7-A5/GpH7-B3 variant L328_03V/GpL16-k0 (antibody, human IgG1, kappa)
heavy 1: not shown
heavy 2: not shown
light: B1 light
notes: as for B1
B29: GpH7-A5/GpH7-B3 variant L328_14T/GpL16-k0 (antibody, human IgG1, kappa)
heavy 1: not shown
heavy 2: not shown
light: B1 light
notes: as for B1
B30: GpH7-A5/GpH7-B3 variant N325_04F/GpL16-k0 (antibody, human IgG1, kappa)
heavy 1: not shown
heavy 2: not shown
light: B1 light
notes: as for B1
B31: GpH7-A5/GpH7-B3 variant N325_08L/GpL16-k0 (antibody, human IgG1, kappa)
heavy 1: not shown
heavy 2: not shown
light: B1 light
notes: as for B1
B32: GpH7-A5/GpH7-B3 variant L328_13S/GpL16-k0 (antibody, human IgG1, kappa)
heavy 1: not shown
heavy 2: not shown
light: B1 light
notes: as for B1
B33: GpH7-A5/GpH7-B3 variant L328_20W/GpL16-k0 (antibody, human IgG1, kappa)
heavy 1: not shown
heavy 2: not shown
light: B1 light
notes: as for B1
B34: GpH7-A5/GpH7-B3 variant L328_19Q/GpL16-k0 (antibody, human IgG1, kappa)
heavy 1: not shown
heavy 2: not shown
light: B1 light
notes: as for B1
B35: GpH7-A5/GpH7-B3 variant D265_11K/GpL16-k0 (antibody, human IgG1, kappa)
heavy 1: not shown
heavy 2: not shown
light: B1 light
notes: as for B1
B36: GpH7-A5/GpH7-B3 variant D265_15Y/GpL16-k0 (antibody, human IgG1, kappa)
heavy 1: not shown
heavy 2: not shown
light: B1 light
notes: as for B1
B37: GpH7-A5/GpH7-B3 variant D265_16H/GpL16-k0 (antibody, human IgG1, kappa)
heavy 1: not shown
heavy 2: not shown
light: B1 light
notes: as for B1
B38: GpH7-A5/GpH7-B3 variant L328_07I/GpL16-k0 (antibody, human IgG1, kappa)
heavy 1: not shown
heavy 2: not shown
light: B1 light
notes: as for B1
B39: GpH7-A5/GpH7-B3 variant P331_06M/GpL16-k0 (antibody, human IgG1, kappa)
heavy 1: not shown
heavy 2: not shown
light: B1 light
notes: as for B1
B40: GpH7-A5/GpH7-B3 variant S267_02A/GpL16-k0 (antibody, human IgG1, kappa)
heavy 1: not shown
heavy 2: not shown
light: B1 light
notes: as for B1
B41: GpH7-A5/GpH7-B3 variant D265_13S/GpL16-k0 (antibody, human IgG1, kappa)
heavy 1: not shown
heavy 2: not shown
light: B1 light
notes: as for B1
B42: GpH7-A5/GpH7-B3 variant D265_08L/GpL16-k0 (antibody, human IgG1, kappa)
heavy 1: not shown
heavy 2: not shown
light: B1 light
notes: as for B1
B43: GpH7-A5/GpH7-B3 variant P331_20W/GpL16-k0 (antibody, human IgG1, kappa)
heavy 1: not shown
heavy 2: not shown
light: B1 light
notes: as for B1
B44: GpH7-A5/GpH7-B3 variant S267_01G/GpL16-k0 (antibody, human IgG1, kappa)
heavy 1: not shown
heavy 2: not shown
light: B1 light
notes: as for B1
B45: GpH7-A5/GpH7-B3 variant S267_03V/GpL16-k0 (antibody, human IgG1, kappa)
heavy 1: not shown
heavy 2: not shown
light: B1 light
notes: as for B1
B46: GpH7-A5/GpH7-B3 variant N325_03V/GpL16-k0 (antibody, human IgG1, kappa)
heavy 1: not shown
heavy 2: not shown
light: B1 light
notes: as for B1

These binders were tested against T2, FcγRIIIa extracellular domain with C-terminal His tag (human, UniProt P08637 17-208) (assay: SPR (Biacore), relative binding, GpH7-A5/GpH7-B3/GpL16-k0 = 100).
T2 construct: extracellular domain; also called 3a; FcgRIIIa; not shown: His tag at the C terminus
T2 sequence (P08637 17-208): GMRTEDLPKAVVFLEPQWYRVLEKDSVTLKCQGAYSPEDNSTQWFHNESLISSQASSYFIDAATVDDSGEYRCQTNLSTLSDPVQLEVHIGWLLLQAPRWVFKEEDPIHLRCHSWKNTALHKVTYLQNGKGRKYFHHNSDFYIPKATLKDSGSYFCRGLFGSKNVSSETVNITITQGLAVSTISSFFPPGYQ
Experimental: (§1) Analysis of interaction between objective antibody and the FcγR was carried out using Biacore T100 (GE Healthcare). HBS-EP+ (GE Healthcare) was used as the running buffer, and the measurement temperature was set to 25° C. Chips produced by immobilizing the antigen peptide by the amine coupling method to a Series S Sencor Chip CM5 (GE Healthcare), or alternatively, chips produced by allowing preliminarily biotinylated antigen peptides to interact with and immobilize onto a Series S Sensor Chip SA (certified) (GE Healthcare) were used. Antibodies of interest were captured onto an antigen peptide-immobilized chip, and allowed to interact to each FcγR diluted with running buffer. To regenerate and repeatedly use the chip, the antibodies captured on the chip were washed off by reacting 10 mM glycine-HCl, pH 1.5.
(§2) The FcγR-binding activity of each antibody was assessed primarily using as an indicator the FcγR-binding activity and dissociation constant for FcγR.

He/Con_3a	Binder
2.6 % of control	B1
75.1 % of control	B2
81.9 % of control	B3
48 % of control	B4
79.3 % of control	B5
53.4 % of control	B6
32.8 % of control	B7
4.6 % of control	B8
68.3 % of control	B9
47.8 % of control	B10
65.1 % of control	B11
4.3 % of control	B12
28.7 % of control	B13
3.2 % of control	B14
-0.8 % of control	B15
-0.5 % of control	B16
11 % of control	B17
80.2 % of control	B18
97.6 % of control	B19
66 % of control	B20
77.3 % of control	B21
73.2 % of control	B22
20.1 % of control	B23

He/Con_3a	Binder
90.8 % of control	B24
78.6 % of control	B25
31.4 % of control	B26
79.1 % of control	B27
78.7 % of control	B28
75.3 % of control	B29
20.7 % of control	B30
33.3 % of control	B31
71.7 % of control	B32
37.4 % of control	B33
81.1 % of control	B34
2.5 % of control	B35
-1.7 % of control	B36
13.6 % of control	B37
84 % of control	B38
74.8 % of control	B39
150 % of control	B40
3.9 % of control	B41
0 % of control	B42
78.6 % of control	B43
53.8 % of control	B44
30.8 % of control	B45
30.3 % of control	B46

What follows are binders tested against T1, FcγRIIb extracellular domain with … in the same assay as above.
Experimental: as §1, §2

He/Con_2b	Binder
10 % of control	B1
116 % of control	B2
114 % of control	B3
124 % of control	B4
219 % of control	B5
172 % of control	B6
169 % of control	B7
6.1 % of control	B8
193 % of control	B9
199 % of control	B10
177 % of control	B11
16 % of control	B12
171 % of control	B13
15 % of control	B14
1.3 % of control	B15
1.1 % of control	B16
48 % of control	B17
116 % of control	B18
104 % of control	B19
114 % of control	B20
110 % of control	B21
119 % of control	B22
38.2 % of control	B23

He/Con_2b	Binder
111 % of control	B24
142 % of control	B25
217 % of control	B26
144 % of control	B27
126 % of control	B28
141 % of control	B29
143 % of control	B30
197 % of control	B31
149 % of control	B32
235 % of control	B33
105 % of control	B34
14.9 % of control	B35
0.6 % of control	B36
38.3 % of control	B37
160 % of control	B38
102 % of control	B39
243 % of control	B40
11.3 % of control	B41
4.6 % of control	B42
111 % of control	B43
105 % of control	B44
192 % of control	B45
111 % of control	B46

From patent US20180155451A1 (published 2018)
